Among the data in paper PMC6540952 are Km values, retold here.

This data set deals with Nc1ncnc2c1ncn2[C@@H]1O[C@H](COP(=O)(O)OP(=O)(O)OP(=O)(O)O)[C@@H](O)[C@H]1O. Briefly: purified protein. Type of data set: biochemical, Homo sapiens.

The term Km denotes the concentration of substrate that gives half-maximal velocity.

On to IP6K1 (Homo sapiens), for which the Michaelis constant (Km) is 353 ± 167 µM.
